Measurements reported in patent US20150266967A1 (Boehringer Ingelheim, published 2015).

Experiments:
[1] = biological target: T1, recombinant Fcγ-receptor 3a protein, high affinity V158 allotype (UniProt P08637 17-208); experiment: surface plasmon resonance, KD from ka and kd
T1 construct: also called Fcγ-receptor 3a V158; FC gamma receptor 3a

[2] = biological target: T1, recombinant Fcγ-receptor 3a protein, …; experiment: surface plasmon resonance, KD compared with reference antibody
[3] = biological target: T2, recombinant Fcγ-receptor 3a protein, low affinity F158 allotype (UniProt P08637 17-208); experiment: surface plasmon resonance, KD from ka and kd; A2, F158 allotype
T2 construct: F158 allotype; also called Fcγ-receptor 3a F158; FC gamma receptor 3a

[4] = biological target: T2, recombinant Fcγ-receptor 3a protein, …; experiment: surface plasmon resonance, KD from ka and kd; B2, F158 allotype

T1 sequence (P08637 17-208 F176V): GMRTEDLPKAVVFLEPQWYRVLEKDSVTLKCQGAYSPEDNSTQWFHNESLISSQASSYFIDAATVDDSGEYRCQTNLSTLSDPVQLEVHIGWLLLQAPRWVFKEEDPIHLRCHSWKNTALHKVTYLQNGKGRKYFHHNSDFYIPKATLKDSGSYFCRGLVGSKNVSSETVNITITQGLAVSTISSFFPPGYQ
T2 sequence (P08637 17-208 limits assumed): as the sequence (P08637 17-208 F176V) above, with V160F counted along it

Binder | Kd [1] [nM] | fold increased binding against the non Fc-engineered IgG1 reference antibody [2] [fold] | Kd [3] [nM] | Kd [4] [nM]
CD37 antibody A2 (antibody, human IgG1, kappa, Fc-engineered CD37 antibody; copies: 2 + 2) heavy: not shown light: DIQMTQSPASLSASVGETVTITCRTSENVYSYLAWYQQKQGKSPQLLVSFAKTLAEGVPSRFSGSGSGTQFSLKISSLQPEDSGSYFCQHHSDNPWTFGGGTELEIKRTVAAPSVFIFPPSDEQLKSGTASVVCLLNNFYPREAKVQWKVDNALQSGNSQESVTEQDSKDSTYSLSSTLTLSKADYEKHKVYACEVTHQGLSSPVTKSFNRGEC | 8.8 | ~40 | 17.5 | –
CD37 antibody B2 (antibody, human IgG1, kappa, Fc-engineered CD37 antibody; copies: 2 + 2) heavy: not shown light: DIQMTQSPSSLSASVGDRVTITCRTSENVYSYLAWYQQKPGKAPKLLVSFAKTLAEGVPSRFSGSGSGTDFTLTISSLQPEDFATYFCQHHSDNPWTFGQGTKVEIKRTVAAPSVFIFPPSDEQLKSGTASVVCLLNNFYPREAKVQWKVDNALQSGNSQESVTEQDSKDSTYSLSSTLTLSKADYEKHKVYACEVTHQGLSSPVTKSFNRGEC | 9.3 | ~40 | – | 21.1
